# Measurements as given in the supplement of paper PMC7877785.
# ± gives the uncertainty stated by the source.
# Assay: self-splicing fitness, log relative to wild type (ln ratio); higher = more splicing; Tetrahymena group I intron in knt gene, E. coli kanamycin selection, DiMSum; sequences stand for … in CUCUCU…GGAGGGAAAAGUUAUCAGGCAUGCACCUGGUAGCUAGUCUUUAAACCAAUAGAUUGCAUCGGUUUAAAAGGCAAGACCGUCAAAUUGCGGGAAAGGGGUCAACAGCCGUUCAGUACCAAGUCUCAGGGGAAACUUUGAGAUGGCCUUGCAAAGGGUAUGGUAAUAAGCUGACGGACAUGGUCCUAACCACGCAGCCAAGUCCUAAGUCAACAGAUCUUCUGUUGAUAUGGAUGCAGUUCACAGACUAAAUGUCGGUCGGGGAAGAUGUAUUCUUCUCAUAAGAUAUAGUCGGACCUCUCCUUAAUGGGAGCUAGCGGAUGAAGUGAUGCAACACUGGAGCCGCUGGGAACUAAUUUGUAUGCGAAAGUAUAUUGAUUAGUUUUGGAGUACUCGUGGUCG
# Outline: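 The eight P1ex-region nucleotides of an intron in the knt kanamycin-resistance gene on pET-22b(+) were all randomised and the library put into E. coli BL21(DE3). Six replicate transformations were grown overnight at 37°C or 30°C on LB agar with or without 25 μg/mL kanamycin, together with 100 μg/mL carbenicillin, 50 μM IPTG and 0.2% rhamnose. Colonies were pooled and amplicon-sequenced on an Illumina HiSeq 2500. Fitness from DiMSum is the error-weighted combination of wild-type-normalised replicate fold changes, kanamycin over none.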
sequence,measurement,setting,value
UAUGAGCAAUAUUACGGGUU,self-splicing fitness (ln),30 °C,-4.04 ± 0.3
same,self-splicing fitness (ln),37 °C,-2.41 ± 0.27
UAUGAGCAAUAUUACGGUAA,self-splicing fitness (ln),30 °C,-3.33 ± 0.35
same,self-splicing fitness (ln),37 °C,-2.78 ± 0.35
UAUGAGCAAUAUUACGGUUG,self-splicing fitness (ln),30 °C,-4.24 ± 0.43
same,self-splicing fitness (ln),37 °C,-2.38 ± 0.45
UAUGAGCAAUAUUACGGUUU,self-splicing fitness (ln),30 °C,-3.7 ± 0.2
same,self-splicing fitness (ln),37 °C,-2.43 ± 0.21
UAUGAGCAAUAUUACGUCCC,self-splicing fitness (ln),30 °C,-2.74 ± 0.49
UAUGAGCAAUAUUACGUGGC,self-splicing fitness (ln),30 °C,-3.07 ± 0.2
same,self-splicing fitness (ln),37 °C,-2.52 ± 0.46
UAUUAGCAAUAUUACGAAAA,self-splicing fitness (ln),30 °C,-1.68 ± 0.26
same,self-splicing fitness (ln),37 °C,-1.2 ± 0.26
UAUUAGCAAUAUUACGAAAU,self-splicing fitness (ln),30 °C,-2.46 ± 0.35
same,self-splicing fitness (ln),37 °C,-1.53 ± 0.43
UAUUAGCAAUAUUACGACCA,self-splicing fitness (ln),30 °C,-0.42 ± 0.18
same,self-splicing fitness (ln),37 °C,-0.894 ± 0.19
UAUUAGCAAUAUUACGAGGC,self-splicing fitness (ln),37 °C,-0.205 ± 0.23
UAUUAGCAAUAUUACGAGGU,self-splicing fitness (ln),30 °C,-2.64 ± 0.24
same,self-splicing fitness (ln),37 °C,-2.27 ± 0.35
UAUUAGCAAUAUUACGAUAU,self-splicing fitness (ln),30 °C,-3.81 ± 0.26
same,self-splicing fitness (ln),37 °C,-2.11 ± 0.2
UAUUAGCAAUAUUACGCCAC,self-splicing fitness (ln),37 °C,-0.751 ± 0.48
UAUUAGCAAUAUUACGCGAU,self-splicing fitness (ln),37 °C,-2.15 ± 0.38
UAUUAGCAAUAUUACGCUCA,self-splicing fitness (ln),30 °C,0.0548 ± 0.15
same,self-splicing fitness (ln),37 °C,0.336 ± 0.17
UAUUAGCAAUAUUACGGGGG,self-splicing fitness (ln),30 °C,-4.15 ± 0.46
same,self-splicing fitness (ln),37 °C,-2.75 ± 0.34
UAUUAGCAAUAUUACGGUCU,self-splicing fitness (ln),30 °C,-2.66 ± 0.23
same,self-splicing fitness (ln),37 °C,-1.57 ± 0.32
UAUUAGCAAUAUUACGGUGC,self-splicing fitness (ln),30 °C,-3.77 ± 0.3
same,self-splicing fitness (ln),37 °C,-1.84 ± 0.23
UAUUAGCAAUAUUACGGUGU,self-splicing fitness (ln),30 °C,-3.01 ± 0.25
same,self-splicing fitness (ln),37 °C,-2.7 ± 0.3
UAUUAGCAAUAUUACGUCAA,self-splicing fitness (ln),30 °C,-1.86 ± 0.21
same,self-splicing fitness (ln),37 °C,-1.34 ± 0.24
UAUUAGCAAUAUUACGUCUA,self-splicing fitness (ln),30 °C,-0.265 ± 0.091
same,self-splicing fitness (ln),37 °C,0.324 ± 0.12
UAUUAGCAAUAUUACGUUGA,self-splicing fitness (ln),30 °C,-3.32 ± 0.29
same,self-splicing fitness (ln),37 °C,-2.17 ± 0.23
UAUUAGCAAUAUUACGUUUG,self-splicing fitness (ln),30 °C,-2.12 ± 0.12
same,self-splicing fitness (ln),37 °C,-0.749 ± 0.13
UCAAAGCAAUAUUACGAAAG,self-splicing fitness (ln),30 °C,-3.84 ± 0.31
same,self-splicing fitness (ln),37 °C,-1.43 ± 0.18
UCAAAGCAAUAUUACGACAA,self-splicing fitness (ln),30 °C,-1.96 ± 0.19
same,self-splicing fitness (ln),37 °C,-1.22 ± 0.14
UCAAAGCAAUAUUACGACAG,self-splicing fitness (ln),30 °C,-2.66 ± 0.14
same,self-splicing fitness (ln),37 °C,-1.25 ± 0.14
UCAAAGCAAUAUUACGACAU,self-splicing fitness (ln),30 °C,-3.633 ± 0.023
same,self-splicing fitness (ln),37 °C,-2.37 ± 0.036
UCAAAGCAAUAUUACGACGC,self-splicing fitness (ln),30 °C,-3.24 ± 0.16
same,self-splicing fitness (ln),37 °C,-2.09 ± 0.14
UCAAAGCAAUAUUACGACUC,self-splicing fitness (ln),30 °C,-2.99 ± 0.38
same,self-splicing fitness (ln),37 °C,-0.37 ± 0.23
UCAAAGCAAUAUUACGAGAG,self-splicing fitness (ln),30 °C,-3.08 ± 0.2
same,self-splicing fitness (ln),37 °C,-2.21 ± 0.21
UCAAAGCAAUAUUACGAGAU,self-splicing fitness (ln),30 °C,-4.03 ± 0.33
same,self-splicing fitness (ln),37 °C,-1.91 ± 0.2
UCAAAGCAAUAUUACGCAAA,self-splicing fitness (ln),30 °C,-2.5 ± 0.23
same,self-splicing fitness (ln),37 °C,-2.19 ± 0.31
UCAAAGCAAUAUUACGCAAU,self-splicing fitness (ln),30 °C,-5.01 ± 0.34
same,self-splicing fitness (ln),37 °C,-2.79 ± 0.21
UCAAAGCAAUAUUACGCCUC,self-splicing fitness (ln),37 °C,-1.91 ± 0.37
UCAAAGCAAUAUUACGCGCC,self-splicing fitness (ln),30 °C,-2.36 ± 0.24
same,self-splicing fitness (ln),37 °C,-1.24 ± 0.28
UCAAAGCAAUAUUACGCUCA,self-splicing fitness (ln),30 °C,-0.864 ± 0.15
same,self-splicing fitness (ln),37 °C,-0.428 ± 0.19
UCAAAGCAAUAUUACGCUGG,self-splicing fitness (ln),30 °C,-3.55 ± 0.37
same,self-splicing fitness (ln),37 °C,-2.28 ± 0.33
UCAAAGCAAUAUUACGGAUA,self-splicing fitness (ln),30 °C,-3.12 ± 0.18
same,self-splicing fitness (ln),37 °C,-1.94 ± 0.14
UCAAAGCAAUAUUACGGCGC,self-splicing fitness (ln),30 °C,-1.8 ± 0.1
same,self-splicing fitness (ln),37 °C,-1.41 ± 0.13
UCAAAGCAAUAUUACGGGCU,self-splicing fitness (ln),30 °C,-2.34 ± 0.11
same,self-splicing fitness (ln),37 °C,-2.55 ± 0.14
UCAAAGCAAUAUUACGGGUU,self-splicing fitness (ln),30 °C,-3.13 ± 0.15
same,self-splicing fitness (ln),37 °C,-2.59 ± 0.15
UCAAAGCAAUAUUACGGUUA,self-splicing fitness (ln),30 °C,-1.04 ± 0.092
same,self-splicing fitness (ln),37 °C,-0.132 ± 0.087
UCAAAGCAAUAUUACGUAGU,self-splicing fitness (ln),30 °C,-3.63 ± 0.21
same,self-splicing fitness (ln),37 °C,-1.69 ± 0.17
